In the supplement of paper PMC10126150 one finds switch fluorescence ratio data, which are given here for 45 sequences.

± gives the standard deviation of the averaged measurements.
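Note: ATP exposure 15 min at 22 °C before imaging.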

For this series, the system named is ATP. Description: switch fluorescence ratio, 500 uM ATP over buffer (Cy3 cluster intensity, sum of 5 cycles each) (fold (ratio)); higher = stronger signal-on switching upon ATP binding; sequences stand for … in TCGTCGGCAGCGTCAGATGTGTATAAGAGACAGTTTTTTTTTTTTTTTTTTTTTTTTT…TC. As to conditions: aptamer strand: ATP DNA aptamer (quencher-CACCTGGGGGAGTATTGCGGAGGAAGG + anchor), 100 nM annealed; ATP concentration: 500 uM. An outline of the steps:
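Between each of five buffer/ATP cycles, the flow-cell was stripped with NaOH and re-annealed. Each cycle imaged Cy3-labelled switching-strand clusters, annealed to 100 nM quencher-labelled ATP aptamer on a modified Illumina MiSeq flow-cell, first in selection buffer and then after 15 min with 500 uM ATP at 22 °C. The fluorescence ratio is summed target-cycle over summed buffer-cycle Cy3 intensity per cluster, averaged per switch-domain sequence, with clusters outside 100-1000 RFU excluded.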
As to TTCAGGTATG, the switch fluorescence ratio was 1.01 ± 0.028.

On to ATTCGTTTTA, for which the switch fluorescence ratio worked out at 0.975 ± 0.013. For GGGCGAGCTC, the switch fluorescence ratio is 0.9982 ± 0.0061. Consider AGAGATCCGG, for which the switch fluorescence ratio is 0.981 ± 0.018. In the case of AAAATTATCT it was 1.01 ± 0.021; in that of TGTGTGGGGA, 1.01 ± 0.027; in that of AAGGAGGGGG, 1.02 ± 0.058. Turning to ACGGGATGGG, the switch fluorescence ratio turned out to be 1.062 ± 0.01.

CGCGGGGCGC: the switch fluorescence ratio was 1.03 ± 0.028. With AAAATTCTGG, the switch fluorescence ratio came to 0.973 ± 0.034. To GGCCTTATTG belongs 1 ± 0.031; to GCAGGGGGTC, 1 ± 0.021. To GTATGTCCCC belongs 1.0169 ± 0.00096; to GCCGCTAAGG, 0.9968 ± 0.0035; to TGAAATTTTA, 0.9926 ± 0.006. To TGAGTTTGTT belongs 1.021 ± 0.0092.

Take CATTATTGGG: the switch fluorescence ratio is 0.9851 ± 0.0017. In the case of TCTGATTTGG it was 0.978 ± 0.028; in that of TGCTGGTCTC, 1 ± 0.015; in that of GTGATAGTAA, 1.006 ± 0.0099. Turning to TACGGGGGGG, the switch fluorescence ratio worked out at 1.07 ± 0.074. In the case of TCTAAATGTT it was 0.985 ± 0.03. To GGAGGGCAGG belongs 0.9882 ± 0.0096; to AAGATTTGGG, 0.991 ± 0.027. With TCGGCAAGTT, the switch fluorescence ratio was 1.2 ± 0.33. Consider AGTGGGGGTC, for which the switch fluorescence ratio came out at 1.02 ± 0.021.

For TGTTGGGGAA, the switch fluorescence ratio worked out at 0.9676 ± 0.0074. For AGTGTGGTGC, the switch fluorescence ratio was 0.9778 ± 0.0073. In the case of TAGAGGCCTG it was 1.04 ± 0.017; in that of GATCTATTTT, 1.01 ± 0.018; in that of TATTGGGCCC, 0.9954 ± 0.0019. As to CCTGCAGGGG, the switch fluorescence ratio stood at 1.094 ± 0.0051. For GCAGGACGAC, the switch fluorescence ratio came to 2.38 ± 0.49. To ATACCAGGTT belongs 1.18 ± 0.063. To AATGTCGACG belongs 0.994 ± 0.036; to TTCCAGAATT, 0.993 ± 0.051; to CCTGTGGCAC, 1.21 ± 0.054. To ACGGTGAGGG belongs 1.02 ± 0.026. Take CTTGAACGAA: the switch fluorescence ratio came to 1.02 ± 0.04. To CGTTATTGAA belongs 0.9834 ± 0.0067. To AATGGATAAC belongs 0.9862 ± 0.0045; to GGGGGTACCG, 0.977 ± 0.021; to CCGTTATCTC, 2.81 ± 1. In the case of TACTTGGTT it was 1.01 ± 0.02; in that of AAGGTTATGC, 0.987 ± 0.039.
